The test concerns the target T1, Abp1 SH3 (ABP1_YEAST), P15891.
T1 chain: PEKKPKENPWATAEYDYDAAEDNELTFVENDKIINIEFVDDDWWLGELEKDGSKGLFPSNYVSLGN
Nature of the test: SPOT array.
Regarding GYDVKVTPWEKRP [Q0055 610-622], the normalised SPOT signal, Boehringer light units (BLU); mean over the file's lines of this peptide is 139.

As for HLFPPSSPVAGKP [YDR501W 3-15], the normalised SPOT signal, Boehringer light units (BLU); mean over the file's lines of this peptide was found to be 69.7.

Consider GRAPRETPEWRRP [YGL034C 16-28], for which the normalised SPOT signal, Boehringer light units (BLU); mean over the file's lines of this peptide is 2720.

Molecule GSSELEEPIAIRP [YHR020W 279-291] registered a normalised SPOT signal, Boehringer light units (BLU); mean over the file's lines of this peptide of 107.

HDKDVIVPNVWRP [YEL036C 221-233]: the normalised SPOT signal, Boehringer light units (BLU); mean over the file's lines of this peptide was determined as 123.

In turn, GYRKAALKYHPDKP [YNL007C 25-38] gave a normalised SPOT signal, Boehringer light units (BLU); mean over the file's lines of this peptide of 172.

In the case of GYFFHDPKFIPNKP [YGR019W 332-345], the normalised SPOT signal, Boehringer light units (BLU); mean over the file's lines of this peptide came to 174.

Regarding GRLTPGLPRSYKP [YPR111W 45-57], the normalised SPOT signal, Boehringer light units (BLU); mean over the file's lines of this peptide came out at 866.

GWYLTGAPNILKP [YDL203C 543-555]: the normalised SPOT signal, Boehringer light units (BLU); mean over the file's lines of this peptide stood at 102.

Molecule GTKSQESPLNKKP [YNL042W 210-222] returned a normalised SPOT signal, Boehringer light units (BLU); mean over the file's lines of this peptide of 58.6.

The molecule GSVWSKTPPEIKP [YOL100W 451-463] showed a normalised SPOT signal, Boehringer light units (BLU); mean over the file's lines of this peptide of 87.2.

In turn, HIGDMYGSVTPLRP [YHL002W 323-336] registered a normalised SPOT signal, Boehringer light units (BLU); mean over the file's lines of this peptide of 122.

Molecule HKSNVRQISNPKKP [YGL023C 320-333] registered a normalised SPOT signal, Boehringer light units (BLU); mean over the file's lines of this peptide of 98.3.

As for GVADPQNSLNPSKP [YOR363C 848-861], the normalised SPOT signal, Boehringer light units (BLU); mean over the file's lines of this peptide was found to be 48.5.

The molecule GTKKIAGVQVPAKP [YPL107W 67-80] had a normalised SPOT signal, Boehringer light units (BLU); mean over the file's lines of this peptide of 106.

As for GQLANSSSRAPAKP [YDL222C 69-82], the normalised SPOT signal, Boehringer light units (BLU); mean over the file's lines of this peptide amounted to 127.

Regarding HSYRQLAPTHHRP [YFL015C 82-94], the normalised SPOT signal, Boehringer light units (BLU); mean over the file's lines of this peptide came out at 703.

Turning to HITSHLRVHVPLKP [YHL027W 198-211], the normalised SPOT signal, Boehringer light units (BLU); mean over the file's lines of this peptide worked out at 285.

Turning to HASLLVRDSKPSKP [YBR193C 182-195], the normalised SPOT signal, Boehringer light units (BLU); mean over the file's lines of this peptide is 91.3.

Take GSKSGPPPRPKKP [YNL138W 349-361]: the normalised SPOT signal, Boehringer light units (BLU); mean over the file's lines of this peptide was 25200.

Turning to HGTLTFPSDYPYKP [YER100W 55-68], the normalised SPOT signal, Boehringer light units (BLU); mean over the file's lines of this peptide came out at 124.

GQFSPENPNEFKP [YPR160W 817-829] displayed a normalised SPOT signal, Boehringer light units (BLU); mean over the file's lines of this peptide of 60.8.

On to HHHHHNRGSTPTKP [YDL025C 257-270], for which the normalised SPOT signal, Boehringer light units (BLU); mean over the file's lines of this peptide was 257.

Regarding HHNIDIDPLPRRP [YLR299W 81-93], the normalised SPOT signal, Boehringer light units (BLU); mean over the file's lines of this peptide worked out at 55.3.

For HGLPRNADSQPARP [YIR013C 32-45], the normalised SPOT signal, Boehringer light units (BLU); mean over the file's lines of this peptide stood at 154.

GSTAVSFPSSGKP [YLR313C 322-334] displayed a normalised SPOT signal, Boehringer light units (BLU); mean over the file's lines of this peptide of 108.

In turn, GVVLRVMVLKPKKP [YNR036C 60-73] returned a normalised SPOT signal, Boehringer light units (BLU); mean over the file's lines of this peptide of 131.

With GVRNIMIPFPNRP [YOR093C 1314-1326], the normalised SPOT signal, Boehringer light units (BLU); mean over the file's lines of this peptide was 2310.

HKVKERDPNMPKRP [YDL002C 84-97] displayed a normalised SPOT signal, Boehringer light units (BLU); mean over the file's lines of this peptide of 156.

For GTSASHSPRPFRP [YLL029W 25-37], the normalised SPOT signal, Boehringer light units (BLU); mean over the file's lines of this peptide was 134.

As for GVFMNWSPRFDRP [YLR023C 375-387], the normalised SPOT signal, Boehringer light units (BLU); mean over the file's lines of this peptide is 176.

Turning to GVNLDPSVKIPAKP [YIR007W 25-38], the normalised SPOT signal, Boehringer light units (BLU); mean over the file's lines of this peptide was found to be 112.

Take HKNFFSQPDINRP [YMR100W 263-275]: the normalised SPOT signal, Boehringer light units (BLU); mean over the file's lines of this peptide was 85.4.

GVNYVDYYPLPDKP [YGL137W 186-199]: the normalised SPOT signal, Boehringer light units (BLU); mean over the file's lines of this peptide was found to be 122.

Molecule HLIAPLAGAVPTKP [YLR153C 435-448] showed a normalised SPOT signal, Boehringer light units (BLU); mean over the file's lines of this peptide of 131.

Take GSSPQPLPELIKP [YGR270W 682-694]: the normalised SPOT signal, Boehringer light units (BLU); mean over the file's lines of this peptide was 55.9.

In turn, GTFESKHVVIPFKP [YLR238W 83-96] gave a normalised SPOT signal, Boehringer light units (BLU); mean over the file's lines of this peptide of 83.5.

On to HADSVADPRSSRP [YOL085C 38-50], for which the normalised SPOT signal, Boehringer light units (BLU); mean over the file's lines of this peptide came to 107.

HEESNNYVEIPKKP [YHR092C 51-64] yielded a normalised SPOT signal, Boehringer light units (BLU); mean over the file's lines of this peptide of 137.
